This note sets out measurements from patent US10280218B2, “Antibodies binding to BMP4, and uses thereof” (ACADEMISCH MEDISCH CENTRUM, priority 2014, dated 2019).

One test concerns the target T1, BMP5 (Homo sapiens, UniProt P22003).
T1 sequence (P22003 317-454): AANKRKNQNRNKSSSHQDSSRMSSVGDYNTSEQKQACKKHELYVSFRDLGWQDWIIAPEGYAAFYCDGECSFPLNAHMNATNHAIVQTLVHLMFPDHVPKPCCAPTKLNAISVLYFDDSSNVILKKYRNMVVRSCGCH
Kind of test: BMP activity luciferase reporter assay (BRE-luciferase, ID1 promoter) in C2C12 cells. In kind it is cell-based, mouse. Set-up: purchased R&D Systems 615-BMC-020. As to conditions: 200 ng/ml hBMP5, 16 h; VHH, Noggin, Gremlin 500 ng/ml; LDN 0.5 μM; DMH1 0.2 μM. The method, then:
One of the most studied BMP target genes is the Inhibitor of Differentiation 1 (ID1). This is an immediate early gene that is activated by binding of the phosphorylated SMADs to its promoter region (López-Rovira et al., 2002). Thus, we employed the BMP-responsive C2C12 cells, which are stably transfected with the BRE-luciferase vector containing the BMP-Responsive-Element (the mouse ID1 promoter) cloned into the pGL3 luciferase vector (Zilberberg 2007). […] C2C12 cells were treated with the different BMPs with or without our VHHs or human Noggin at a concentration of 5 μg/ml. Luciferase activity was measured after 16 hours incubation. Most of the transcriptional data is in concordance with the results obtained with the phosphorylation of SMAD1/5/8.
C2C12 cells were plated in 96-well plates at 5×10^3 cells/well and cells were allowed to attach overnight. 100 μl of DMEM with 0.1% BSA were added in each well. VHH antibodies and human Fc-Noggin at the indicated concentrations were added at the same time. Wells with unstimulated cells were added as controls. […] Luciferase activity was measured by adding 100 μl of luciferase substrate solution from the Bright-Glo™ Luciferase Assay System (Promega Benelux, Leiden, The Netherlands). After 3 minutes of incubation, luciferase activity was measured with Synergy HT Multi-Mode Microplate Reader (Biotek, Winooski, Vt., United States). […]

A further test has as its system endogenous BMP activity. Kind of test: BRE-luciferase activity of supernatants of mouse intestinal organoid cultures. In kind it is cell-based. As to conditions: supernatants of day 3; C4C4 100 ng/ml, C8C8 500 ng/ml or 5 μg/ml. The method, then: Finally, the VHHs were tested in an intestinal organoid culture system for their ability to neutralize the function of BMP4 ex vivo. Inhibition of BMP activity is one of the requirements to maintain Intestinal Stem Cells in vitro cultured as “organoids” that mimic crypt-villus structures and is usually provided by the addition of Noggin to the media. Murine small intestine organoids were cultured in the presence or absence of the VHH biheads and compared to Noggin. To precisely determine which BMPs are present in these cultures, BMP secretion was measured in the conditioned media of intestinal organoids grown without Noggin for three days. Whereas BMP2, BMP4 and BMP6 could be detected by ELISA (FIG. 14A), BMP5 levels were negative, most likely due to the low sensitivity of the ELISA assay (>250 pg/mL), and not due to the lack of BMP5 in these cultures. Indeed, analysis of the protein lysates of these organoids, detected the presence of BMP2, BMP4, BMP5 and BMP6 (FIG. 14B). Next, freshly isolated crypts from murine small intestines were cultured with the VHHs and tested for their ability to provide endogenous BMP inhibition and to sustain organoid cultures ex vivo. […]
Organoids were cultured as previously described (Sato et al., 2009). […] Crypts were counted and resuspended in matrigel. […]

B1: hNoggin (protein)
chain: QHYLHIRPAPSDNLPLVDLIEHPDPIFDPKEKDLNETLLRSLLGGHYDPGFMATSPPEDRPGGGGGAAGGAEDLAELDQLLRQRPSGAMPSEIKGLEFSEGLAQGKKQRLSKKLRRKLQMWLWSQTFCPVLYAWNDLGSRFWPRYVKVGSCFSKRSCSVPEGMVCKPSKSVHLTVLRWRCQRRGGQRCGWIPIQYPIISECKCSC
B1: the “inhibition of BMP5 signals, comparison of inhibitors” value with BMP5 is given as “greatly inhibit”.

B2: C8E7: E7 linked to C8, hetero-dimer VHH bihead (protein)
chain: EVQLVESGGGLVQAGGSLRLSCAASGRTFRINDMGWYRQAPGKSRDMVARITSGGNTNYADSVKGRFTISRDNAKNTVYLQMNSLKPEDTAVYYCNADGLRFDSTRYRPFDSWGQGTQVTVSSGGGGSGGGGSEVQLVESGGGLVQAGGSLRLSCAASGSIRGFVAMAWYRQAPGKQREWVATVTNGGTLYGDSVKGRFTGSRDNAKNTVYLQMNSLKPEDTAVYYCALRQIGASGYDYWGQGTQVTVSS
With B2, in the test on endogenous BMP activity, the “inhibition of endogenous BMP activity ex vivo (BRE-luciferase activity of organoid supernatants)” value is listed as “to the same level as the natural inhibitor Noggin”.
